Assay results from PMC5473249.

Target: FabXol3 (omalizumab-derived Fab with three point mutations)
Experiment: SPR; FabXol3, FabXol or intact omalizumab amine-coupled at low density; IgE-Fc flowed over, 2-fold dilutions from 100 nM; 20 mM HEPES pH 7.4, 150 mM NaCl, 0.005% P-20; 25 °C; monophasic kinetics at low concentrations

Kd: 1 nM | koff: 0.0008 s⁻¹ | kon: 1.2e+06 M⁻¹ s⁻¹
B1: IgE-Fc, P01854 105-427 (domain or fragment)
chain: DIVASRDFTPPTVKILQSSCDGGGHFPPTIQLLCLVSGYTPGTIQITWLEDGQVMDVDLSTASTTQEGELASTQSELTLSQKHWLSDRTYTCQVTYQGHTFEDSTKKCADSNPRGVSAYLSRPSPFDLFIRKSPTITCLVVDLAPSKGTVQLTWSRASGKPVNHSTRKEEKQRNGTLTVTSTLPVGTRDWIEGETYQCRVTHPHLPRALMRSTTKTSGPRAAPEVYAFATPEWPGSRDKRTLACLIQNFMPEDISVQWLHNEVQLPDARHSTTQPRKTKGSGFFVFSRLEVTRAEWEQKDEFICRAVHEAASPSQTVQRAVSVNPGK
modifications: not checked
